Laboratory results as given in the supplement of paper PMC10567573.

B1: C22orf31 (parent)
chain: YSLELGKAIKQKLWEALCSQGAIS

Variants of: B1
Assay: protein stability index of a GFP-peptide fusion (GPS, HEK-293T) (PSI 1-6); higher = more stable
Conditions: c terminus: a fixed tail appended
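Note: lentivirally expressed fusions sorted by FACS into six bins by GFP to DsRed ratio, PSI derived from sequencing read proportions per bin multiplied by bin number.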

| Variant | protein stability index |
| --- | --- |
| YSLELGKAIKQKLWEALCSQGAHS [I23H] | 1.63 |
| YSLELGKAIKQKLWEALCSQGAMS [I23M] | 2.22 |
| YSLELGKAIKQKLWEALCSQGAES [I23E] | 2.37 |
| YSLELGKAIKQKLWEALCSQGAPS [I23P] | 1.6 |
| YSLELGKAIKQKLWEALCSQGADS [I23D] | 1.62 |
| YSLELGKAIKQKLWEALCSQGASS [I23S] | 2.85 |
| YSLELGKAIKQKLWEALCSQGANS [I23N] | 1.7 |
| YSLELGKAIKQKLWEALCSQGAAS [I23A] | 1.75 |
| YSLELGKAIKQKLWEALCSQIAIS [G21I] | 4.15 |
| YSLELGKAIKQKLWEALCSQFAIS [G21F] | 2.94 |
| YSLELGKAIKQKLWEALCSQDAIS [G21D] | 1.94 |
| YSLELGKAIKQKLWEALCSQNAIS [G21N] | 3.07 |
| YSLELGKAIKQKLWEALCSQAAIS [G21A] | 4.53 |
| YSLELGKAIKQKLWEALCSQGAIA [S24A] | 2.68 |
| YSLELGKAIKQKLWEALCSQGAIQ [S24Q] | 2.92 |
| YSLELGKAIKQKLWEALCSQGAIR [S24R] | 2.69 |
| YSLELGKAIKQKLWEALCSQGAIT [S24T] | 1.83 |
| YSLELGKAIKQKLWEALCSQGAIN [S24N] | 2.63 |
| YSLELGKAIKQKLWEALCSQGAIH [S24H] | 2.01 |
| YSLELGKAIKQKLWEALCSQGAIY [S24Y] | 3.7 |
| YSLELGKAIKQKLWEAYCSQGAIS [L17Y] | 2.06 |
| YSLELGKAIKQKLWEALCSQGRIS [A22R] | 3.87 |
| YSLELGKAIKQKLWEALCSQGKIS [A22K] | 3.13 |
| YSLELGKAIKQKLWEALCSQGSIS [A22S] | 3.11 |
| YSLELGKAIKQKLWEALCSQGDIS [A22D] | 1.59 |
| YSLELGKAIKQKLWEALSSQGAIS [C18S] | 1.91 |
| YSLELGKAIKQKLWEALGSQGAIS [C18G] | 1.53 |

| Variant | protein stability index |
| --- | --- |
| YSLELGKAIKQKLWEALASQGAIS [C18A] | 1.69 |
| YSLELGKAIKQKLWEALDSQGAIS [C18D] | 2.09 |
| YSLELGKAIKQKLWEALYSQGAIS [C18Y] | 2.52 |
| YSLELGKAIKQKLWEALHSQGAIS [C18H] | 1.66 |
| YSLELGKAIKQKLWEALESQGAIS [C18E] | 2.17 |
| YSLELGKAIKQKLWEALISQGAIS [C18I] | 3.32 |
| YSLELGKAIKQKLWEALFSQGAIS [C18F] | 1.64 |
| YSLELGKAIKQKLWEALVSQGAIS [C18V] | 2.29 |
| YSLELGKAIKQKLWEALNSQGAIS [C18N] | 3.44 |
| YSLELGKAIKQKLWEALKSQGAIS [C18K] | 4.02 |
| YSLELGKAIKQKLWEALPSQGAIS [C18P] | 2.26 |
| YSLELGKAIKQKLWEALMSQGAIS [C18M] | 2.12 |
| YSLELGKAIKQKLWEALCSPGAIS [Q20P] | 2.21 |
| YSLELGKAIKQKLWEALCSEGAIS [Q20E] | 2.79 |
| YSLELGKAIKQKLWEALCSFGAIS [Q20F] | 1.95 |
| YSLELGKAIKQKLWEALCSRGAIS [Q20R] | 2.99 |
| YSLELGKAIKQKLWEALCSNGAIS [Q20N] | 1.62 |
| YSLELGKAIKQKLWEALCSVGAIS [Q20V] | 2.58 |
| YSLELGKAIKQKLWEALCSGGAIS [Q20G] | 3.45 |
| YSLELGKAIKQKLWEALCSIGAIS [Q20I] | 2.97 |
| YSLELGKAIKQKLWEALCDQGAIS [S19D] | 1.88 |
| YSLELGKAIKQKLWEALCCQGAIS [S19C] | 2.31 |
| YSLELGKAIKQKLWEALCFQGAIS [S19F] | 2.56 |
| YSLELGKAIKQKLWEALCRQGAIS [S19R] | 2.46 |
| YSLELGKAIKQKLWEALCNQGAIS [S19N] | 3.94 |
| YSLELGKAIKQKLWEALCQQGAIS [S19Q] | 1.95 |
| YSLELGKAIKQKLWEALCAQGAIS [S19A] | 4.18 |
